Results reported in US20130115189A1.

Experiments:
IL-1 receptor [1] = assay: homogeneous time-resolved fluorescence (HTRF) receptor binding assay
IL-1 receptor [2] = assay: cell-based or functional assay

Substance | IC50 (IL-1 receptor [1]) [nM] | Bioactivity reduction (Cytotoxicity, A375 cells), ratio of LC50 to MA-wt (IL-1 receptor [2]) [fold] | Bioactivity reduction (IL6 release, HeLa cells), ratio of EC50 to MA-wt (IL-1 receptor [2]) [fold]
MA-D145K-His6 (from UniProt P01584 117-269) (ligand) | 28 |  | 
MA-wt (interleukin-1β wild type sequence containing an N-terminal methionine) (from UniProt P01584 117-269) (ligand) | 20 |  | 
MA-wt-CG (from UniProt P01584 117-269) (ligand) | 31 |  | 
MA-wt-His6 (from UniProt P01584 117-269) (ligand) | 23 |  | 
MDI-D145K-CG (from UniProt P01584 118-269) (ligand) | 6770 | 600000 | 60000
MDI-D145K-His6 (from UniProt P01584 118-269) (ligand) | 4810 | 600000 | 60000
MDI-wt-His6 (from UniProt P01584 118-269) (ligand) | 1340 | 700 | 43
